Patent US9028829B2, “Uniform field magnetization and targeting of therapeutic formulations” (The Children's Hospital of Philadelphia, priority 2004, dated 2015)

Tested on: Pronase
Experiment: Protection of MNP-encapsulated catalase from proteolysis
Assay type: in vitro ADME
Conditions: by 30 mins
Experimental: Protection and activity of MNP-encapsulated catalase. The capacity of MNP to protect the catalase cargo was measured using a proteolysis assay. Samples were incubated for 60 min at 37° C. with shaking in a 0.2 wt % buffered Pronase, a robust mixture of proteinases which completely digests proteins into individual amino acids. The amount of catalase retained by MNP post proteolysis was determined following MNP separation by centrifugation (20 min, 4° C. at […]) using the radioactivity assay described above. The enzymatic activity of MNP-bound catalase retained over time was measured in comparison with free catalase.

B1: free catalase: bovine liver catalase, not encapsulated (protein, UniProt P00432 2-527, looked up)
Catalase: ADNRDPASDQMKHWKEQRAAQKPDVLTTGGGNPVGDKLNSLTVGPRGPLLVQDVVFTDEMAHFDRERIPERVVHAKGAGAFGYFEVTHDITRYSKAKVFEHIGKRTPIAVRFSTVAGESGSADTVRDPRGFAVKFYTEDGNWDLVGNNTPIFFIRDALLFPSFIHSQKRNPQTHLKDPDMVWDFWSLRPESLHQVSFLFSDRGIPDGHRHMNGYGSHTFKLVNANGEAVYCKFHYKTDQGIKNLSVEDAARLAHEDPDYGLRDLFNAIATGNYPSWTLYIQVMTFSEAEIFPFNPFDLTKVWPHGDYPLIPVGKLVLNRNPVNYFAEVEQLAFDPSNMPPGIEPSPDKMLQGRLFAYPDTHRHRLGPNYLQIPVNCPYRARVANYQRDGPMCMMDNQGGAPNYYPNSFSAPEHQPSALEHRTHFSGDVQRFNSANDDNVTQVRTFYLKVLNEEQRKRLCENIAGHLKDAQLFIQKKAVKNFSDVHPEYGSRIQALLDKYNEEKPKNAVHTYVQHGSHLSAREKANL
catalase activity on exposure to proteolytic enzymes: total deactivation
